Source: the DeepSol protein solubility set

test: soluble on expression in E. coli; label from the status in PepcDB or PDB records

Sequence | soluble on expression in E. coli
MNKFVKSLLVAGSVAALAACSSSNNDAAGNGAAQTFGGYSVADLQQRYNTVYFGFDKYDITGEYVQILDAHAAYLNATPAAKVLVEGNTDERGTPEYNIALGQRRADAVKGYLAGKGVDAGKLGTVSYGEEKPAVLGHDEAAYSKNRRAVLAY | soluble
MKIQLHKWPKSVIDRLDLVFLDAPFPCQGKSDVEGIFDPPYYEWFQFNKEFTEYTNFEKCLEYLEDRMIKLGPFDGLIGFSQGAILSGGLPGLQAKGIAFQKVPKIKFVIIIGGAKLKSAKLAENAYSSSLETLSLHFLGETDFLKPYGTQLIESYKNPVVVHHPKGHTVPRLDEKSLEKVTAFIDTLEHLVMEEDKNGEENTSKPTK | soluble
MFPVVDDVKAKELGLEVVYNLELPLRPERQIYRNLEDLLPKDVVEKVGRLDIVGDIAIISIPDELMPRKGVIVEAIRKLYPKIKVIARRGFHTGVYRVRRLEVIWGENRLQTIHKENGVLLKIDLSKVFFNPRMKGERYRLAQLIKDGERILIPFAGVLPYALVIARFRKVDIVAVELNDEAVKLAQENVLLNKDKLKGKISIIHGDVFDVLPKLPSFDRVISPTPKGVDALALTLSKAKRFLHYYDFIHEDKLGEFKEKIIKECQKQGKECKVKVRKVADYKPHVYKVCADIEIK | soluble
MKWILLPILFVTLAVSGTALAQPSPTETVKKTVDDVIKIVSDKELKKPQNEKRRRQEIKRAIGTVFDSAEMAQRAMARHWRDRNAAEKKEFVDLFENLLENSYAGKIESYNQEKVVYLKEAIDGDYAEVRSKIVTARRDEYSLDYRLMLKGGKWVVYDIVIEGVSLVSNYRTQFNKIITNQGYAELVKKLRSKNKEISMPLEHHHHHH | soluble
MRGSHHHHHHGMASMSVSTASTEMSVRKIAAHMKSNPNAKVIFMVGAGISTSCGIPDFRSPGTGLYHNLARLKLPYPEAVFDVDFFQSDPLPFYTLAKELYPGNFRPSKFHYLLKLFQDKDVLKRVYTQNIDTLERQAGVKDDLIIEAHGSFAHCHCIGCGKVYPPQVFKSKLAEHPIKDFVKCDVCGELVKPAIVFFGEDLPDSFSETWLNDSEWLREKITTSGKHPQQPLVIVVGTSLAVYPFASLPEEIPRKVKRVLCNLETVGDFKANKRPTDLIVHQYSDEFAEQLVEELGWQEDFEKILTAQ | soluble
GMIDFTKSKQYTLSIRLSTDGFSFSIYNPINDNSQSLFEKEVDTSLSLTANLKNVFHESDFLSYSYKRVNIMIASKRFTMIPLELFEEEQAELLFYHNHQKRENEIVMYNILKKNNVVIIFGIDKSTYTFLNEQYPEARFYSQSTPLIEYFSIKSRLGNSKKMYASVRKDAIDIYCFERGQLLLANSFECMQTEDRIYYLLYVWKQLEFNQERDELHLTGTLSDKETLMNELKKFILQVFIMNPANNIDMQALLTCE | soluble
MGSDKIHHHHHHMLTRTHEAIPEIMYRIGDLADETGLPCYIVGGYVRDLIMQRPCTDIDIMVIGEPVPFAHALAEKLGGRNFVLFERFRTAQLELDDPKAGTFKLEIVGARKESYNPESRKPITSIGTLEDDLSRRDFTINALALRLNRKERGEVVDLFDGQRHIREKLLKTPLDPEQTFSDDPLRMMRAARFACQLDFQLDEATLTAMSTMSSRIQIVSRERVSHEFFKIMEARKPSIGLKILYSTGLLKEIIPELTVMAGIEQVDGLGHKDTLFHTFQVVDNLAEHSDKLWLRVSALFHDIAKPVTKRFHPGSGWTFHGHEAVGVKIVARIFRAMKWPLEPMEYVQKMVRLHHRPIPLSKEEITDSAVRRLMFDAGPDLDDLMTLCRADVTSKNPRKVQRIMKNFSNVEAKIAEVGEKDLLAKWRPPVSGTDIMELLNLPQGRTVGIIKSRMENAIIDGDIPYDRQAALDYIQQVYREMQEKGEA | not soluble
MDKVLNREESLQLMDLLGLERSAWGNIPLMRKAYLKKCKEFHPDKGGDEEKMKKMNTLYKKMEDGVKYAHQPDFGGFWDATEVFASSLNPGVDAIYCKQWPECVKKMSTNCICLLCLLRMKHENRKLYRKDPLVWVDCYCFDCFRMWFGLDLCEGTLLLWCDIIGQTTYRDLKL | soluble
MTSQPLRVGIGGPVGSGKTALTLALCRELRERYNLAVVTNDIYTQEDAEFLVRNEALAPERIIGVETGGCPHTAIREDASINLEAVDQLNRRFPGLELILVESGGDNLSATFSPELSDLTLYVIDVSAGDKIPRKGGPGICKSDLLVINKIDLAPLVGASLDVMDRDARRMRGDKPFVFSNQKTGQGLDEIIAFIERQGLLTAA | not soluble
MGSDKIHHHHHHMTTGKKVARRKLSLLELASELDNVSKACRIMGYSRQQFYEIRRNYQTFGAEGLVDRLPGPREPHPNRVDEATEDRILAYSLEFPTHGPVRVAQQLVLQGVQVSSGGVRGVWSRNGMLTRHERLLRLERHVRDTGIALNDDQVRTLERFSPEFRERHIETRCSGDLVAVDTFFVGTLKGVGKIYLQSAIDCHSRYAFGRLYTSKLPVTAVHMLNESVLPFFEEHDTPVVTVLSDNGREFCGRPDRHPYELFLQLENIEHRTTRVRRPQSNGFVERLHRTLLDEHFRIQGRKNWYESLDEMQADLDAYLRHYNHERAHQGRNMSGRTPYQAFLDSRPEGQPKEDNEGHYAA | not soluble
MGMSATMGDSASIPGVFFADFGPAPPEITPEGYHEVELNKTKWVLPQWYNSLKPLGEGAYGVVCTAEYEPTGDRVAIKKFFRPFQSTIHAKRTYRELKLLRTLQHDNVLEMIDVFTPDPDASSLNNVYFVSVLMGSDLQNIMKIQRLTDEQIQLLIYQVLRGLKYIHSAGIIHRDLKPSNIAVNERCEVKVFLSFSQLSFLILSFFKILDFGLARAQDAEMTGYVATRWYRAPEIMLNWMHYTQTVDVWSVGCILAELVSGRPLFPGDDHIDQLTKIMSVVGTPKEEFWSKIQSEEARNYIKNRSPIIRQDFVTLFPMASPYALELLEMMLILDPDRRISVSSALRHDYLREYSVPNDEPVAMDTVINSIVTIDPAEERATTLSDWRELIWNEIRLFQNSARRLSFVSCTDTEEEPMKI | not soluble
MGSDKIHHHHHHMTNVGRPIETHAITVGQGSDARSIAALVRAPAQDERPTCIWLGGYRSDMTGTKALEMDDLAASLGVGAIRFDYSGHGASGGAFRDGTISRWLEEALAVLDHFKPEKAILVGSSMGGWIALRLIQELKARHDNPTQVSGMVLIAPAPDFTSDLIEPLLGDRERAELAENGYFEEVSEYSPEPNIFTRALMEDGRANRVMAGMIDTGCPVHILQGMADPDVPYQHALKLVEHLPADDVVLTLVRDGDHRLSRPQDIDRMRNAIRAMIEPRP | not soluble
MAKKLSSPKEYKEFIDKFDVFLFDCDGVLWSGSKPIPGVTDTMKLLRSLGKQIIFVSNNSTKSRETYMNKINEHGIAAKLEEIYPSAYSSATYVKKVLKLPADKKVFVLGEAGIEDELDRVGVAHIGGTDPSLRRALASEDVEKIGPDPSVGAVLCGMDMHVTYLKYCMAFQYLQDPNCAFLLTNQDSTFPTNGKFLPGSGAISYPLIFSTGRQPKILGKPYDEMMEAIIANVNFDRKKACFVGDRLNTDIQFAKNSNLGGSLLVLTGVSKEEEILEKDAPVVPDYYVESLAKLAETA | soluble
MTWLDEKGRFAIYEAPQNCPYLGTIGTCYEFGSLPVILMFPELEKLFLKLLISYVRNDGYVPHDLGFHSLDSPIDGTTSPPKWKDMNPSLILLVYRYFKFTNDIDFLKEVYPTIVKVMDWELRQCRDGLPFMEGEMDNAFDATIIKGHDSYTSSLFIASLIAMREIAKLVGDSNYVGFINEKLNVAREAFRKMFNGKYFKAWDGVDKASFLAQLYGEWFTTLLELENIVDENMIKSALESIIRLNGNASPYCVPNLVDENGKIVNLSVQTYSSWPRLVFAICWLAYKKGVGDLSFCKKEWDNLVRNGMVWDQPSRINCYTGKPEINYLDHYVGSPSLWSFLFLEHHHHHH | not soluble
SRQETGGNLMSEPLLIARTPDTELFLLPGMANRHGLITGATGTGKTVTLQKLAESLSEIGVPVFMADVKGDLTGIAQAGTASEKLLTRLKNIGVNDWQPHANPVVVWDIFGEKGHTVRATVSDLGPLLLARLLNLNDVQSGVLNIIFRIADDQGLLLLDFKDLRAITQYIGDNAKSFQNQYGNISSASVGAIQRGLLSLEQQGAAHFFGEPMLDIKDWMRTDANGKGVINILSAEKLYQMPKLYAASLLWMLSELYEQLPEAGDLEKPKLVFFFDEAHLLFNDAPQVLLDKIEQVIRLIRSKGVGVWFVSQNPSDIPDNVFGQLGNRVQHALRAFTPKDQKAVKTAAQTMRANPAFDTEKAIQELGTGEALISFLDAKGSPSVVERAMVIAPCSRMGPVTEDERNGLINHSPVYGKYEDEVDRESAYEMLQKGFQASTEQQNNPPVKGKEVAVDDGILGGLKDILFGTTGPRGGKKDGVVQTMAKSAARQVTNQIVRGMLGSLLGGRKR | not soluble
SLVELQEIFDVSYGSKLDLNKMSSFNPTINFVGRSGKNNGVTASVDLLKNTKPYPAGLLTVALGGSVLSTFLQNKPFYTAQNVAVLNPKTEMTEQQKLFYCAAIFANAYRFSACGREANRTLRQLFVPSLDEIPSWVESVNLNPSAGVTEPKLKESLDLPVVRQSKRLDEIFTIQNGIAATKLKEFEQRQKDTVVYIRPASTQARTLRSYIARDSVDEKHIFPCHTLFTSTNGEGSHTYSYVSTCEFVANSDVAVLTPIQSDMPIEVKLYYAKCITANRYLFSYGRKPKGEKLKSIMLPYFDQQEDFDYICRFIHTLLFSNNL | not soluble
LLPLRGLLVFPTMVLHLDVGRKKSVEALEHAMIDDHYILLAAQKEISIDEPIETDIYQIGTYAKVKQMLKLPNGTIRVLVEGLQRAKIEKYVANDAFIEVEMCTLPEDDEDNATENKALMRNVLQLFEQYIKLSKKVSAETLASVSDIAEPGRLADVIASHLPLKIVEKQQLLETTSVKERLLQV | soluble
MGSDKIHHHHHHMTQQTIYHIGTPGTPWGATEKAQWLAEQTKKRSYFDDVVSKIETFKSDFDVDQYGELAYDSGTYPLFVVRTKNWDDSKPTVLVTGGVHGYETSGVHGALRFIETKAKDYQPHFNVVVAPCLSPWGYETINRWNPAAIDPNRSFVADSPAGECAHIMNYVAGLGVDILAHIDLHETTDTDNSEFRPAKAAMDGKVNTNWNIPDGFYLVGNSEKPYPEFQKAVLDSVEEVTHIADADDENKLIGEDIAQRGVILLPTAKMGLCISFSKAEYATTTEVYPDSPKATPEQCIQAQVAAVTGGLDFLK | not soluble
MDKADLYEKNQSRKDILNYYREEDKDFEQYLNFRENRKMLQQAFESGTLIRKQNYRARIHERMVEQPVTEKKELLRSR | not soluble
MSFRTIEWRDDKVVMIDQTRLPGEEVYCEYADYKSVAEAIRGMVIRGAPAIGVAAAMGVALGAREIIADTYESFFRQMENVCDVMARTRPTAVNLFWAIERMKRVADENRDKPLDQLREILKTEAIRIEQEDLELCKAIGRHGAALIPEGATVLTHCNAGGLATAGYGTALGVIRAAHDAGKKIQVFADETRPWLQGARLTAWELMKDGIPVTLISDNMAGFFMKRGEIACCVVGADRIAANGDTANKIGTYSVAVLAKENNIPFYVAAPTTTLDLSLENGDQIPIEERHSREVTHLHGFPVAPEGIRVRNPAFDVTPARYISAIITEQGVVSGDYVTGLRGLVAPLEHHHHHH | not soluble
MAHHHHHHMKRPWGESVGTQSNHTRTDGVQEPSASAELAASANDDTQVRSDGRNVRVRSSGSPRTIDTGNGGGSTVVSPQRQLSDQRLPQASSRHELLEGTSEFLLRTEGNIPCSFGNVPKDSIGYESQCCWNLYNNTGTTHYEPPWRTCLAVEKNRENPYYLPWLDSMKIPPLDELLSKVDERKSKAATSGDVDSGTNDSNVKDGSTKHAD | soluble
